# Publication PMC3847722 (Toxins, 2013)
# B1: MCS6-27 (antibody, V domains shown)
# VH: EVQLEQSGPGLVKPSQSLSLTCTVTGYSITNDYAWNWIRQFPGNKLEWMGYINYSGTTSYNPSLKSRISITRDTSKNQFFLQFNSVTTEDTATYYCARSPLAYWGQGTLVTVSA
# VL: DIVLTQTPASLSVSVGETVTITCRASENIYSHLAWYQQKQGKSPQLLVYTATNLADGVPSRFSGRGSGTQYSLKINSLQSEDFGIYFCQHFWGTPWTFGGGTKLEIK
# notes: also called mAb MCS6-27; mAb6-27
# Target: T1, botulinum neurotoxin serotype B (Clostridium botulinum., UniProt P10844)
# T1 construct: source: bought: Metabiologics Inc
# Experiment: BLI; […], dissociation in PBS 1800 s; 1:1 model, […]
# Settings: both partners purified
binder,measurement,value
B1,Kd,86 pM
